Patent publication US20230279147A1 (AELAN CELL TECHNOLOGIES, published 2023)
Where no end group is shown, it is not given here. Me2 = dimethyl on Lys side chain (K(me2))

B1: Clone A (RW24), recombinant rabbit anti-H1.0K180me2 monoclonal IgG antibody (antibody, V domains shown)
VH: QSVEESGGRLVTPGTPLTLTCTVSGFSLNNYVMMWVRQAPGEGLEWIAAITTGGTTYYANWAKGRFTISKTSTTVDLKIISPTTEDTATYFCARDLYGDTSDDIWDAFDPWGPGTLVTVSS
VL: DPVLTQTPSSVSAAVGGTVTISCQSSESVYKNNNLAWYQQKPGQPPKLLIYSASTLASGVPSRFKGSGSGTQFTLTISGVQCDDAATYYCLGVYSDIFAF
notes: Tested as a full-length recombinant rabbit monoclonal IgG

Assays:
[1] = tested on: recombinant human H1.0 protein, full length, unmethylated
H1.0K180me2 peptide = target: T1, H1.0K180me2 peptide (human); assay: ELISA on coated peptides, compared at the antibody concentration that gives the threshold O.D. 1.5
T1 construct: also called H1.0Kme2 peptide
T1 peptide: CAKPVKASKPKKAKPVK(Me2)PK
Method: The specificity of the recombinant rabbit anti-H1.0K180me2 monoclonal IgG antibody clones for H1.0K180me2 peptide was determined using ELISA in FIG. 2A. Wells were coated with H1.0K180me2 peptide; 50 ul of peptide solution (5 ug/ml) was used to coat each well. 100 ul of each clone antibody was added to wells in a 2× dilution series. Curves for each peptide were generated by plotting antibody concentration against measured O.D at 450 nm. In order to directly compare the binding efficiencies of the different clones, a threshold cut-off was selected that intersected the linear range of each of the clone titration curves (horizontal dashed line at O.D. 1.5). Clone A (RW24) has the highest binding affinity for H1.0K180me2 peptide.
The non-specific binding of the antibody clones to unmodified H1.0 peptide was also determined by ELISA as above in FIG. 2B. Clones D (RW28) and E (RW36) both bound to unmodified H1.0 peptide with high affinity. At the threshold concentration calculated above, Clone A (RW24) was 20× more efficient at binding H1.0K180me2 peptide than unmodified H1.0 peptide, Clone B (RW6): 23×, Clone C (RW37): 22×, Clone D (RW28): 2×, Clone E (RW36): 5×.

Molecule	in vitro methylation reaction analysed by LC-MS [1]	fold more efficient at binding H1.0K180me2 peptide than unmodified H1.0 peptide (H1.0K180me2 peptide) [×]
recombinant G9A (methyltransferase)	G9A specifically methylates several C-terminal lysine residues, including H1.0K180me2	
B1		20
